Results as given in the nanobody polyreactivity screen of Harvey et al. (2022).

Assay: yeast display, Sf9 membrane polyspecificity reagent, FACS + sequencing; frameworks hold sequencing errors
Method in brief: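 Galactose-induced (36–48 hours) yeast carrying a synthetic nanobody display library were exposed to 10% biotinylated, detergent-solubilized Sf9 membrane reagent at 4 °C for 1 hour. FACS followed streptavidin microbead enrichment, using low and high (top ~1%) gates for expression (anti-HA) and reagent binding (streptavidin). Colony PCR, MiSeq 2 × 250 sequencing and CDR-length filtering followed. Labels for polyreactivity reflect the gate of origin.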

## QVQLVESGGGLVQAGGSLRLSCAASGFYYYVMVWYRQAPGKERELVAGITASGGSTYADSVKGRFTISRDNAMYTVYLQMNSLKPEDTAVYYCAAGFVGTNYTLHGFSYEYWGQGTQVTVSS
  polyreactivity (PSR sort gate): low polyreactivity

## QVQLVESGGGLVQAGGSLRLSCAASGSTFYFNTMGWYRQAPGKERELVAAINSIGGSTYYADSVKGRFTISRDNAKNTVYLQMNSLKPEDTAVYYCAKLKRLYYWSSHTSYGYDYWGQGTQVTVSS
  polyreactivity (PSR sort gate): high polyreactivity

## QVQLVESGGGLVQAGGSLRLSCAASGITFKAYAMGWYRQAPGKERELVAAINTSGARTYYADSVKGRFTISRDNAKNTVYLQMNSLKPEDTAVYYCNARLHQQEGDYWGQGTQVTVSS
  polyreactivity (PSR sort gate): low polyreactivity

## QVQLVESGGGLVQAGGSLRLTCAASGRTFSTYVMGWYRQAPGKEREFVAAISTGGGSTYYADSVKGRFTISRDNAKNTVYLQMNSLKPEDTAVYYCAAKRKIRGYGPYEFWGQGTQVTVSS
  polyreactivity (PSR sort gate): high polyreactivity

## QVQLVESGGGIVQAGGSLRLSCAASGSIFKYYAMARYRQAPGKERELVASMSRVGSTNYADSVKGRFTISRDTAKNTVYLQMNSLKPEDTAVYYCNKRWLYYNLDYWGQGTQVTVSS
  polyreactivity (PSR sort gate): high polyreactivity

## QVKRVESGGGLVQAGGSLRLSCAASGSIFDEYAMGWYIQAPGKERELVAAITRTGGRTYYADSVKGRFTISRENAKNSVYLQMNSLIPEDTAVYFCNAPSRTRYDYWGQGTQVTVSS
  polyreactivity (PSR sort gate): low polyreactivity

## QVQLVESGGGLVQAGGSLRLSCAASGHIFLHNAMGWYRQAPGKERELVAGITYSDTSTYADSVKGRFTISRDNAKNTVYLQMNSLKPEDTAVYYCEYYYWGQGTQVTVSS
  polyreactivity (PSR sort gate): low polyreactivity

## QVQLVESGGGLDQAGGRLRLSCAASGRTFVYYAMGWYRQAPGKERELVATITRGGRTNYADSVKGRFTISRDNAKNTVYLQMNSLKPEDTAVYYCNARYSWWRSRVGSSHRPDGYWGQGTQVTVSS
  polyreactivity (PSR sort gate): high polyreactivity

## QVQLVESGGGLVQAGGSLRLSCAAAGSIFSYYAMGWSRPEPGKEREFVATIRRSGASTYYADSVKGRFTISRDNAKNTGYLQMNSLKPEDTAVYYCNAASARRPIYEAARGSKYDYWGQRTQVTVSS
  polyreactivity (PSR sort gate): low polyreactivity

## QVQLVESGGGLVQAGGSLRLSCAASGRIFKYNAMGWYRQAPGKERELVAVITSGGSTNYADSVKGRFTISRDNAKNTVYLQMNSLKPEDTAVYYCNARRYSTYDYWGQGTQVTVSS
  polyreactivity (PSR sort gate): high polyreactivity

## QVQHVESGGGLVQAGGSLRLSCAASGFTFVYYAMGWYRQAPGKERELVAAISRSGSRTYYADSVKGRFTISRDNAKKTVYLQMNSLKPEDTAVYYCAVAGYSPYLYRYGYWVQGTQVTVSS
  polyreactivity (PSR sort gate): high polyreactivity

## QVQLVESGGGLVQAGGSLRLSCAASGFTFTYYAMGWYRQAPGKERELVAAISWSSDSTYYADSVKGRFTISRDNAKNTVYLQMNSLKPEDTAVYYWAARPGSKNVEYYYWGQGTQVTVSS
  polyreactivity (PSR sort gate): low polyreactivity

## QDQLVESGGRLVQAVGSLRLSCAASGRIFTDYTMGWYRQAHGKERELVAAISYSGGSTYYADSVKGRFTISRDNAKNTVYLQMNSLKPEDTAVYYCNKDYYVHDGYGYWGQGTQVTVSS
  polyreactivity (PSR sort gate): low polyreactivity

## QVQHVESGGGLVQAGGSLRLSCAASGLTFTAYVMGWYRQAPGKERELVAAIRISGGSTYYADSVKGRFTISRDNAKNTVYLQMKSLQPADTAVYYCATRHRHVTATDSRIGDYWGQGTQVTVSS
  polyreactivity (PSR sort gate): low polyreactivity

## QVQLVESGGGLVQAGGSLRLSCAASGRIFAPYAMGWYRQAPGKERELVAAIDGSGGSTYYADSVKGRFTISRDNAKNTVYLQMNSLKPEDTAVYYCATRGSYRSQRWYGYWGQGTQVTVSS
  polyreactivity (PSR sort gate): high polyreactivity

## QVQLVESGGGLVQAGGSLRLSCAASGLIFTRNAMGWYRQAPGKERELVASISNSGGSTYYADSVKGRFTISRDNAKNTVYLQMNSLKPEDTAVYYCAAPTHLHGHGNQNEFYYWGQGTQVTVSS
  polyreactivity (PSR sort gate): low polyreactivity

## QVQLVESGGGLVHAGGSLRLSCAASGFIYDAYANGWYRQSPGKERELVAAIDSGGSTDYADSVKGRFTISRDNAKNTVYLQMNSLKPEDTAVYYCNAERAYLWWYNFDYWGQGTQVTVSS
  polyreactivity (PSR sort gate): low polyreactivity

## QVQLVESGGGLVQAGGSLRLSCAASGRTFGYNAMGWYRQAPGKERELVAAIRTIGDSTYYADSVKGRFTISRDNAKNTVYLQMNSLKPEDTAVYYCAARKLRSRYDYWGQGTQVTVSS
  polyreactivity (PSR sort gate): high polyreactivity

## EEELVESGGGLVQAGGSLSLICAASGLTFYIYAMGWYRPAPGKERELVAAITTSGDSTYYADSVKGRFTISRDNAKNTVYLLLNSLKPEDTAVYYGAAAVWHYGRPGYLDSGYDYWGQGTQVSVSS
  polyreactivity (PSR sort gate): low polyreactivity

## QVQLVESGGGLVQAGGSLRLSCAASGSIFSTYAMGWYRQAPGKERELVAAISGSGGSTYYADSVKGRFTISRDNAKNTVYLQMNSLKPEDTAVYYCNRLPYVSSAYVGLGYWGQGTQVTVSS
  polyreactivity (PSR sort gate): high polyreactivity

## QVQLVESGGGLVQAGGSLRLSCAASGSTFRYNDMGWYRQAPGKERELVADITSGGGTYYADSVKGRFTISRDNAKNTVYLQMNSLKPEDTAVYYCNADGFYDYPGWYGLVYWYDYWGQGTQVTVSS
  polyreactivity (PSR sort gate): high polyreactivity

## QVQLVESGGGLVQAGGSLRLSCAASGSTFATNTMGWYRQAPGKERELVAAITSGGSTYYADSVKGRFTISRDNAKNTVYLQMNSLKPEDTAVYYCAVRGVYYYHRAFDYWGQGTQVTVSS
  polyreactivity (PSR sort gate): high polyreactivity

## QVQLVESGGGLVQAGGSLRLSCAASGRIYYRYGMGWYRQAPGKERELVAAISRTGGSTYYADSVKGRFTISRDNAKNTVYLQMNSLIPEDTAVYYCNATSNYRYDYWGQGTQVTVSS
  polyreactivity (PSR sort gate): low polyreactivity

## QVQLVESGGGLDQAGGSLRLSCAASGSTFRYYAMGWYRQAPGKERELVAAINWSGGTTSYADSVKGRFTISRDNAKNTVYLQMNSLKPEDTAVYYCAVPYLYKYSRYDYWGQGTQVTVSS
  polyreactivity (PSR sort gate): high polyreactivity

## QVQLVESGGGLVQAGGSLRLSCAASGRIFGRYAMGWYRQAPGKEWELVAAISNGGTTTYADSVKGRFTLSRDNAKNTVYLQMNSLKPEDTAVYYCADDWSYKIYVIQRWYGVDYWGQGTQVTVSS
  polyreactivity (PSR sort gate): low polyreactivity

## QVQLVESGGGLVQAGGSLRLSCAASGSTFRYNAMGWYRQARGKERELVGGITSSGGTYAHSVKGRFTISRDNAKNTVYLQMNSLKPEDTAVYYCNALGVQDEFDYWGQGTQVTVSS
  polyreactivity (PSR sort gate): low polyreactivity

## QVQLVESGGGLVQAGGSLRLSCAASGFILAQNAKGWSRQAPGKEWELVAAISRRGGRTSYADSVKGRFTISRDNAKNTVYLQMNSLKPEDTAVYYCAALPPRASSDAGGWYVAEDYWGQGTQVTVSS
  polyreactivity (PSR sort gate): high polyreactivity

## QVQLQESGGGLVQAGGSLRLSCAGTGNIIDADFMRWYRQAPGKERELAASSTEGGSTNYAESVKSRFTISRDNANNTVYLQMNSLKPEVTAVYYCAAIAYPYIPTYFDYDSDYFYWGQGTQVTVSR
  polyreactivity (PSR sort gate): high polyreactivity

## QVQLVESGGGLVQAGGSLRLSCAASGRTFARYAMGWYRPAPGKERELVAAISSSGGSTYYADSVKWRFTISRDNAKNTVYLQMNSLKPEDTAVYYCVTYRNWWYDFWGQGTQVTGSS
  polyreactivity (PSR sort gate): high polyreactivity

## QVQLVESGGGLVQAGGSLRLICAASGRIFLTYAMGWYRQAPGKERELVAAISTSGTRTYYADSVKGRFTISRDTAKKTVYLQMNSLKPEDTAVYHCAREKYNYRTYEYWGQGTQVTVSS
  polyreactivity (PSR sort gate): high polyreactivity

## QVQVVESGGGFVQAGGSLRVSCAASGSTFRANAMGCYTQAPGKERELVAAISQSGGITYYADSVKGRFTISRDIAKNTVYLQMNSLKPEDTAVYYCAAKIALDNDYWGQGTQVTVSS
  polyreactivity (PSR sort gate): high polyreactivity

## QVQLVESGGGLVQAGGSLRLSCAASGRTFFWNAMGWYRQAPGTERELVAAITWSGGSTYYADSVKGRFTLSRDNAKNTVYLQMNSLKPEDTAVYYCAAVVSEYVWRYEYWGQGTQVTVSS
  polyreactivity (PSR sort gate): low polyreactivity

## QVQLVESGGGLVQAGGSLRLSCAASGSTFQFYAMGWYRQAPGKERELVAAIRSSDDSTYYADSVKGRFTISRDNAKNTVYLQMNSLKPEDTAVYYCAAVQDYYGVWYDYWGQGTQVTVSS
  polyreactivity (PSR sort gate): high polyreactivity

## QVQLVESGGGLVQAGGSLRLSCAASGSNFVRNVMGWYRQAPGKERELVAGISWNGGSTFYADSVKGRFTISRDNAKNTVYLQMNCLKPEDTAVYYCATPYGRHGWFYLYDYWGQGTLVTVSS
  polyreactivity (PSR sort gate): low polyreactivity

## QVQLVESGGGLVQAGGSLRLICAASGFTIWFNAMGWYRQAPWKERDLVATIRGSGGTTYYAYSVKGRFTISRDNAKNTVYLQMNSLKPEDTAVYYCAAEGSFRKFDYCGQGTQVTVSS
  polyreactivity (PSR sort gate): low polyreactivity

## QVQLGESGGGLLQAGGSHSLICADSGSTIRPNAMGWYTQAPGKERELVATIRGGGTSTYYADSVKGRFTISRDNAKNTVYLQLNSLKPEDTAVYYCAARGFYTGSYPGYYYWGQGTQVTVSS
  polyreactivity (PSR sort gate): high polyreactivity

## QVQLVESGGGLVQAGGSLRLSCAASGIIFYHYALGWYRPAPGKERELVAAISRRGGTTYYADSVKGRFTISRDNAKNTVYLQMNSLKPEDTAVYYCAADYGSYGLYRGYYYWGQGTQVTVSS
  polyreactivity (PSR sort gate): high polyreactivity

## QVQRVESGGGLVQAGCSLRLSCAASGLIFTRYDMGWNRPAPGKERELVAAISGDGGSTYYAESVKGRFTISRDNAKNTVYLQMNSLKPEDTAVYYCAADSARTPWDDYWGQGTQVTVSS
  polyreactivity (PSR sort gate): high polyreactivity

## QVQLVESGGGLVQAGGSLRLSCAASGFIIGVYAMGWYRQAPGKEREFVAAISLTGGSTSYADSVKGLFTISRDNAKNTVYLQMNSLKREDTAVYYCAADAWFWVRWGENYWGQGTQVTVSS
  polyreactivity (PSR sort gate): low polyreactivity

## QVQLVESGGGIVQAGGSLRLSCAASGSTFDVYAMGWYRQAPGKERELVAVINTSGTRTYYADSVKGRFTISRDNAKNTVYLQMNSLKPEDTAVYYCAVSYLSTLGRSRYDYWGQGTQVTVSS
  polyreactivity (PSR sort gate): low polyreactivity

## QVQLVESGGGLVQAGGSLRLSCAASGFIFPYYAMGWYRQAPGKERELVAAILTGGSTYYADSVKGRFTISRDNAKNTVYLQMNSLKAEDSAVYYCAARRKYDPNYYWGQGTQVTVSS
  polyreactivity (PSR sort gate): high polyreactivity

## QVQLVDSGGGLVQAGGSLRLSCAASGFIFFQNAMGWYRQSPGKERELVAAISRRGGSTYYADSVKGRFTISRDNAKNTVYLQRNSLTPDDTAGYYCAARSRCDLASRYTGDYWGQGTQLTVSS
  polyreactivity (PSR sort gate): low polyreactivity

## QVQLVESGGGLVQAGGSLRLSCAASGSIFSTYAMGWYRQAPGKERELVAAISVSGSSTYYADSVKGRFTISRDNAKNTVYLQMNSLKPEDTAVYYCNKAFRSVRPRRRYDYWGQGTQVTVSS
  polyreactivity (PSR sort gate): low polyreactivity
